Biological target: T1, human P2X1 receptor, wild type subunit (human) (UniProt P51575)
T1 sequence: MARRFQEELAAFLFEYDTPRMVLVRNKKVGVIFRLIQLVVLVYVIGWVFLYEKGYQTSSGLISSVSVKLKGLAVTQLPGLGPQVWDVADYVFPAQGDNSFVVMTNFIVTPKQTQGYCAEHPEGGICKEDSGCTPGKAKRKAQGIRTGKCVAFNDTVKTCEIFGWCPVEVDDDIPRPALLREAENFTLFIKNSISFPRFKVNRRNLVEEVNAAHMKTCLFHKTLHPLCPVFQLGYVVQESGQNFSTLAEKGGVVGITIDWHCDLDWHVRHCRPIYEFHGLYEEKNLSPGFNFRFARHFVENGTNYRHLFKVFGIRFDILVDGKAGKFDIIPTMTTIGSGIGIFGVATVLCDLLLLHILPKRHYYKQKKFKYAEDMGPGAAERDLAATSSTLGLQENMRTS

B1: human P2X1 receptor K190C-K68A double mutant subunit (receptor)
chain: MARRFQEELAAFLFEYDTPRMVLVRNKKVGVIFRLIQLVVLVYVIGWVFLYEKGYQTSSGLISSVSVALKGLAVTQLPGLGPQVWDVADYVFPAQGDNSFVVMTNFIVTPKQTQGYCAEHPEGGICKEDSGCTPGKAKRKAQGIRTGKCVAFNDTVKTCEIFGWCPVEVDDDIPRPALLREAENFTLFICNSISFPRFKVNRRNLVEEVNAAHMKTCLFHKTLHPLCPVFQLGYVVQESGQNFSTLAEKGGVVGITIDWHCDLDWHVRHCRPIYEFHGLYEEKNLSPGFNFRFARHFVENGTNYRHLFKVFGIRFDILVDGKAGKFDIIPTMTTIGSGIGIFGVATVLCDLLLLHILPKRHYYKQKKFKYAEDMGPGAAERDLAATSSTLGLQENMRTS
modifications: labelled with the cysteine reactive fluorophore MTS-TAMRA (K190C)
In the case of B1, the ATP (100 uM) evoked decrease in MTS-TAMRA fluorescence (voltage clamp fluorometry) in oocytes co-expressing WT and K68A-K190C subunits; neither homomer shows a fluorescence change is reported as 3%.

— article PMC5018734
